Key:
[1] = molecular target: human FMR1NB (ENSG00000176988) (human) (UniProt Q8N0W7); test: flow cytometry, live human sperm; antibody not named (only one FMR1NB antibody was tried)
[2] = molecular target: human BRS3 (ENSG00000102239) (human) (UniProt P32247); test: flow cytometry, live human sperm; antibody not named (SC33404 is the only BRS3 antibody that bound)
Sequence of UniProt P32247 (P32247 whole entry): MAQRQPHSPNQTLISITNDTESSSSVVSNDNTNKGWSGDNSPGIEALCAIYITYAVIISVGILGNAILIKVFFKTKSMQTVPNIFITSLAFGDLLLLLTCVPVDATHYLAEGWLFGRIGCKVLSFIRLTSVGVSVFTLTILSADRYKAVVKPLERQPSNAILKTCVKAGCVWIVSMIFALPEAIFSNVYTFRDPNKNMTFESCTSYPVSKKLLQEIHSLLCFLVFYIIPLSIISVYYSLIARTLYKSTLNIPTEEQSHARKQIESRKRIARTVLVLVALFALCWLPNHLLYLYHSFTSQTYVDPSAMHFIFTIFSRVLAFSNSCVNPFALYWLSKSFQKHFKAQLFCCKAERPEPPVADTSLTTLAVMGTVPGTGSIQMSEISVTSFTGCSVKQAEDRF

Sequence of UniProt Q8N0W7 (Q8N0W7 whole entry): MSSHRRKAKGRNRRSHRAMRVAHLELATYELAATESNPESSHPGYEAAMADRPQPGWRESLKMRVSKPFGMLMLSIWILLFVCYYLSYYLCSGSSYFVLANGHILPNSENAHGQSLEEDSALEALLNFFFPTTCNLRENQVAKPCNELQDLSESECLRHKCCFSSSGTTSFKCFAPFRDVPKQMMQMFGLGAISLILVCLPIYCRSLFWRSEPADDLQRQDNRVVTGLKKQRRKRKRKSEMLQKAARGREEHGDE

Sperm cells showing specific binding (%) [1] [%]	Sperm cells showing specific binding (%) [2] [%]	Substance
29.7	–	FMR1NB antibody, Proteintech Group 11069-2-AP
–	10.7	BRS-3 (N-14), Santa Cruz Biotechnology SC-33404 (antibody)

From patent publication US20090208977A1
